The values below come from patent US20210079060A1 (ALETA BIOTHERAPEUTICS, published 2021).

Where “and” joins values, the source holds several entries; their conditions need not be identical. Equal entries are not always repeated.

In assay [1] the target is T1, CD20 (UniProt P11836 1-297, limits assumed).
T1 construct: whole, on cells; also called CD20 positive HEK293 cells
T1 sequence (looked up): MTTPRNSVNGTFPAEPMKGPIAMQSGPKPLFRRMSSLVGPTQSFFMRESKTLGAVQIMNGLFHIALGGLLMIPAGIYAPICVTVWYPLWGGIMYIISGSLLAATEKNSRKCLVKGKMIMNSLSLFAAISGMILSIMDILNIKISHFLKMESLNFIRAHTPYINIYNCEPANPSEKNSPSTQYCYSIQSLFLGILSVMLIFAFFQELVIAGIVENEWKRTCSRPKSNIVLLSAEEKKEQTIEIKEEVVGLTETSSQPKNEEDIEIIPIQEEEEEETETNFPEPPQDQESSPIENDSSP
The assay can be described thus: FACS on CD20 positive HEK293 cells, detected with FMC63-PE.

Assay [2] has as its target T1, CD20. The assay is described as follows: binding to CD20 positive cells; unit as printed in the table; it follows from 22.34 ug/ml and MW 210.8 kDa, while the curve's axis is in ng/ml.
Assay [3] deals with T1, CD20. The assay is described as follows: binding to CD20 positive HEK293 cells (method of the fit not stated).
The target in assay [4] is T1, CD20. The assay can be described thus: binding to CD20 positive cells; unit as printed in the table, but the x-axis of the curve is in ng/ml and the half-maximum lies near 20 on it.

For orientation: EC50 means the concentration needed to bring the measured effect to its halfway point. A low value points to higher potency in that assay. As a reminder, the Kd is the equilibrium constant for the complex coming apart. A lower Kd goes with tighter binding.

B1: Rituximab-CD19 construct (#377/378) (antibody, human IgG1, kappa)
light: QIVLSQSPAILSASPGEKVTMTCRASSSVSYIHWFQQKPGSSPKPWIYATSNLASGVPVRFSGSGSGTSYSLTISRVEAEDAATYYCQQWTSNPPTFGGGTKLEIKRTVAAPSVFIFPPSDEQLKSGTASVVCLLNNFYPREAKVQWKVDNALQSGNSQESVTEQDSKDSTYSLSSTLTLSKADYEKHKVYACEVTHQGLSSPVTKSFNRGECGGGGSGGGGSGGGGSGGGGSPEEPLVVKVEEGDTAALWCLKGTSDGPTQQLTWSRESPLKPFLKYSLGVPGLGVHVRPDAISVVIRNVSQQMGGFYLCQPGPPSEKAWQPGWTVNVEGSGELFRWNVSDLGGLGCGLKNRSSEGPSSPSGKLMSPKLYVWAKDRPEIWEGEPPCLPPRDSLNQSLSRDLTVAPGSTLWLSCGVPPDSVSRGPLSWTHVHPKGPKSLLSLELKDDRPARDMWVMGTSLMLPRATAQDAGKWYCHRGNLTMSFHLEITARPSRHHHHHH
heavy: not shown
notes: also called Rituximab-based construct; wild type Rituximab-CD19 construct
Turning to B1, the concentration giving a half-maximal response (EC50) with CD20 [1] is 0.00343 µg/mL and 0.0163 nM; with CD20 [2], 106 nM; with CD20 [4], 22.3 µg/mL. This molecule yielded a dissociation constant Kd with CD20 [3] of roughly 0.016 nM.
